Test system: SpyTag-CsgA

Substance	PTDH activity (OD 340 nm, absorbance of formed NADH)	amylase activity
PTDH-SpyCatcher	the thin cotton cloth exhibited almost exclusive specific-enzyme binding	–
amylase-SpyCatcher	–	amylase activity was observed throughout the experiment

— patent US20190315799
